Experiment [1] deals with SARS-CoV-2 RBD (Wuhan-1) (SARS-CoV-2, Wuhan-1) (UniProt P0DTC2). Description: SPR. A general note: SPR reads the build-up and loss of mass on a sensor chip optically.
For experiment [2] the target is unchanged. Description: SPR. The source holds these as a separate data set.

Like-named read-outs stand apart in the source and are kept apart here.

As usually defined, the Kd is the equilibrium constant for the complex coming apart. Higher therefore signals weaker binding. One may read the koff as a measure of how fast the partners let go of each other. Higher therefore signals a short-lived complex. The kon is the rate constant with which the complex forms. A higher kon goes with fast association. Consider CC12.1 (antibody), for which, in experiment [1], the Kd worked out at 5.92 nM, the koff was 0.00412 s⁻¹ and the kon turned out to be 695000 M⁻¹ s⁻¹. Moreover, the kon in experiment [2] stood at 696000 M⁻¹ s⁻¹.

The record behind these values is paper PMC9367177.
